Assay results reported in PMC7192616.
Changes are numbered by the printed parent chain.

Assays:
Assay in all cases: ITC
[1] = biological target: T1, mRBM20(513-621) (Mus musculus, UniProt Q3UQS8 513-621)
T1 sequence: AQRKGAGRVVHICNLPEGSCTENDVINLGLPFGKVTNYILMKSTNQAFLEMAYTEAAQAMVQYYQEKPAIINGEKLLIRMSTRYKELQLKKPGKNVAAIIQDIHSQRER

[2] = biological target: T2, mRBM20(513-609) delta-alpha3 (Mus musculus, UniProt Q3UQS8 513-609)
T2 sequence: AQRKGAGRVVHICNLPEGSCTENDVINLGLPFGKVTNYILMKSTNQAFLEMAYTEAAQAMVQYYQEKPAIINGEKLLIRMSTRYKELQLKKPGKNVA

[3] = biological target: T3, mRBM20(513-621) Q577A (Mus musculus, UniProt Q3UQS8 513-621, Q577A)
T3 sequence: T1 sequence with Q65A

[4] = biological target: T4, mRBM20(513-621) R595M (Mus musculus, UniProt Q3UQS8 513-621, R595M)
T4 sequence: T1 sequence with R83M

[5] = biological target: T5, mRBM20(513-621) R591M (Mus musculus, UniProt Q3UQS8 513-621, R591M)
T5 sequence: T1 sequence with R79M

[6] = biological target: T6, mRBM20(513-621) Y596A (Mus musculus, UniProt Q3UQS8 513-621, Y596A)
T6 sequence: T1 sequence with Y84A

[7] = biological target: T7, mRBM20(513-621) F560A (Mus musculus, UniProt Q3UQS8 513-621, F560A)
T7 sequence: T1 sequence with F48A

[8] = biological target: T8, mRBM20(513-649) +RS (Mus musculus, UniProt Q3UQS8 513-649)
T8 sequence: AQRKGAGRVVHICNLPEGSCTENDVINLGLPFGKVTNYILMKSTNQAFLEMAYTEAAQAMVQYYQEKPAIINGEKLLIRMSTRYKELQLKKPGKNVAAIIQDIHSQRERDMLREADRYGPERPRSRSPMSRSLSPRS

[9] = biological target: T9, mRBM20(513-621) V537I (Mus musculus, UniProt Q3UQS8 513-621, V537I)
T9 sequence: T1 sequence with V25I

[10] = biological target: T10, mRBM20(513-621) N526A (Mus musculus, UniProt Q3UQS8 513-621, N526A)
T10 sequence: T1 sequence with N14A

[11] = biological target: T11, mRBM20(513-621) Q558A (Mus musculus, UniProt Q3UQS8 513-621, Q558A)
T11 sequence: T1 sequence with Q46A

[12] = biological target: T12, mRBM20(513-621) H523A (Mus musculus, UniProt Q3UQS8 513-621, H523A)
T12 sequence: T1 sequence with H11A

GGGACCUGGUCUUUCCAGGUCCC (structured_RNA) [vIRES-SL] was tested, and the Kd [1] was 8 ± 1 µM.

AUCUUG (ssRNA) gave a Kd [1] of 4.8 ± 0.1 µM.

For AUUUUA (ssRNA), the Kd [1] was 140 ± 30 µM.

AUCCUA (ssRNA) showed a Kd [1] of 210 ± 3 µM.

Work on AUCUUA (ssRNA) yielded a Kd [2] of 43 ± 1 µM, a Kd [3] of 6.6 ± 0.8 µM and a Kd [4] of 29.3 ± 0.3 µM. The Kd [1] was 5.7 ± 0.2 µM, the Kd [5] was 12.4 ± 0.6 µM and the Kd [6] was 74 ± 13 µM. For the same binder, the Kd [7] was 156 ± 6 µM, the Kd [8] was 4.3 ± 0.4 µM and the Kd [9] was 10.3 ± 0.7 µM. It also gave a Kd [10] of 9 ± 1 µM, a Kd [11] of 3.4 ± 0.7 µM and a Kd [12] of 67 ± 12 µM.

AUCUCA (ssRNA) gave a Kd [1] of 95 ± 1 µM.

ACCUUA (ssRNA) gave a Kd [1] of 13 ± 2 µM.

GUCUUA (ssRNA) was tested, and the Kd [1] was 4 ± 0.1 µM.
